± gives the uncertainty stated by the source.
B1: Myocardin-related transcription factor A, residues 341 to 383; numbered along this chain, Q969V6 (parent)
chain: GALPANLDDMKVAELKQELKLRSLPVSGTKTELIERLRAYQDQ

Variants of: B1
Test: abundance fitness (aPCA) (normalised: wild type 0, dead -1); higher = more abundant; growth selection in yeast, the domain comes from the species named
Conditions: Homo sapiens

Row | Variant | abundance fitness
1 | GALPANLDDMGVAELKQELKLRSLPVSGTKTELIERLRAYQDQ [K11G] | -0.054 ± 0.059
2 | GALPANLDDMAVAELKQELKLRSLPVSGTKTELIERLRAYQDQ [K11A] | 0.132 ± 0.1
3 | GALPANLDDMTVAELKQELKLRSLPVSGTKTELIERLRAYQDQ [K11T] | -0.161 ± 0.077
4 | GALPANLDDMWVAELKQELKLRSLPVSGTKTELIERLRAYQDQ [K11W] | -0.635 ± 0.081
5 | GALPANLDDMSVAELKQELKLRSLPVSGTKTELIERLRAYQDQ [K11S] | -0.029 ± 0.093
6 | GALPANLDDMLVAELKQELKLRSLPVSGTKTELIERLRAYQDQ [K11L] | -0.197 ± 0.074
7 | GALPANLDDMFVAELKQELKLRSLPVSGTKTELIERLRAYQDQ [K11F] | -0.502 ± 0.072
8 | GALPANLDDMVVAELKQELKLRSLPVSGTKTELIERLRAYQDQ [K11V] | -0.055 ± 0.068
9 | GALPANLDDMQVAELKQELKLRSLPVSGTKTELIERLRAYQDQ [K11Q] | -0.161 ± 0.13
10 | GALPANLDDMYVAELKQELKLRSLPVSGTKTELIERLRAYQDQ [K11Y] | -0.799 ± 0.14
11 | GALPANLDDMDVAELKQELKLRSLPVSGTKTELIERLRAYQDQ [K11D] | -0.045 ± 0.086
12 | GALPANLDDMMVAELKQELKLRSLPVSGTKTELIERLRAYQDQ [K11M] | -0.275 ± 0.13
13 | GALPANLDDMHVAELKQELKLRSLPVSGTKTELIERLRAYQDQ [K11H] | -0.154 ± 0.098
14 | GALPANLDDMRVAELKQELKLRSLPVSGTKTELIERLRAYQDQ [K11R] | -0.079 ± 0.059
15 | GALPANLDDMEVAELKQELKLRSLPVSGTKTELIERLRAYQDQ [K11E] | 0.047 ± 0.074
16 | GALPANLDDMPVAELKQELKLRSLPVSGTKTELIERLRAYQDQ [K11P] | -0.166 ± 0.098
17 | GALPANLDDMCVAELKQELKLRSLPVSGTKTELIERLRAYQDQ [K11C] | -0.126 ± 0.094
18 | GALPANRDDMKVAELKQELKLRSLPVSGTKTELIERLRAYQDQ [L7R] | -0.614 ± 0.077
19 | GALPANSDDMKVAELKQELKLRSLPVSGTKTELIERLRAYQDQ [L7S] | -0.47 ± 0.091
20 | GALPANEDDMKVAELKQELKLRSLPVSGTKTELIERLRAYQDQ [L7E] | -0.924 ± 0.096

Row | Variant | abundance fitness
21 | GALPANADDMKVAELKQELKLRSLPVSGTKTELIERLRAYQDQ [L7A] | -0.097 ± 0.062
22 | GALPANTDDMKVAELKQELKLRSLPVSGTKTELIERLRAYQDQ [L7T] | -0.136 ± 0.12
23 | GALPANQDDMKVAELKQELKLRSLPVSGTKTELIERLRAYQDQ [L7Q] | -0.763 ± 0.14
24 | GALPANCDDMKVAELKQELKLRSLPVSGTKTELIERLRAYQDQ [L7C] | -0.157 ± 0.14
25 | GALPANHDDMKVAELKQELKLRSLPVSGTKTELIERLRAYQDQ [L7H] | -0.87 ± 0.17
26 | GALPANGDDMKVAELKQELKLRSLPVSGTKTELIERLRAYQDQ [L7G] | -0.305 ± 0.064
27 | GALPANVDDMKVAELKQELKLRSLPVSGTKTELIERLRAYQDQ [L7V] | -0.199 ± 0.077
28 | GALPANDDDMKVAELKQELKLRSLPVSGTKTELIERLRAYQDQ [L7D] | -1.17 ± 0.17
29 | GALPANWDDMKVAELKQELKLRSLPVSGTKTELIERLRAYQDQ [L7W] | -0.429 ± 0.077
30 | GALPANLDDMKVAQLKQELKLRSLPVSGTKTELIERLRAYQDQ [E14Q] | -0.063 ± 0.095
31 | GALPANLDDMKVAYLKQELKLRSLPVSGTKTELIERLRAYQDQ [E14Y] | -0.147 ± 0.089
32 | GALPANLDDMKVARLKQELKLRSLPVSGTKTELIERLRAYQDQ [E14R] | -0.169 ± 0.083
33 | GALPANLDDMKVATLKQELKLRSLPVSGTKTELIERLRAYQDQ [E14T] | -0.134 ± 0.096
34 | GALPANLDDMKVASLKQELKLRSLPVSGTKTELIERLRAYQDQ [E14S] | -0.056 ± 0.072
35 | GALPANLDDMKVADLKQELKLRSLPVSGTKTELIERLRAYQDQ [E14D] | -0.266 ± 0.15
36 | GALPANLDDMKVAGLKQELKLRSLPVSGTKTELIERLRAYQDQ [E14G] | -0.165 ± 0.064
37 | GALPANLDDMKVACLKQELKLRSLPVSGTKTELIERLRAYQDQ [E14C] | -0.311 ± 0.14
38 | GALPANLDDMKVAKLKQELKLRSLPVSGTKTELIERLRAYQDQ [E14K] | -0.215 ± 0.098
39 | GALPANLDDMKVAPLKQELKLRSLPVSGTKTELIERLRAYQDQ [E14P] | -0.656 ± 0.12
40 | GALPANLDDMKVAFLKQELKLRSLPVSGTKTELIERLRAYQDQ [E14F] | -0.3 ± 0.2

Row | Variant | abundance fitness
41 | GALPANLDDMKVALLKQELKLRSLPVSGTKTELIERLRAYQDQ [E14L] | -0.355 ± 0.087
42 | GALPANLDDMKVAMLKQELKLRSLPVSGTKTELIERLRAYQDQ [E14M] | 0.022 ± 0.13
43 | GALPANLDDMKVAWLKQELKLRSLPVSGTKTELIERLRAYQDQ [E14W] | -0.314 ± 0.089
44 | GALPANLDDMKVAVLKQELKLRSLPVSGTKTELIERLRAYQDQ [E14V] | -0.127 ± 0.1
45 | GALPANLDDMKVAHLKQELKLRSLPVSGTKTELIERLRAYQDQ [E14H] | 0.136 ± 0.12
46 | GALPANLDDMKVAALKQELKLRSLPVSGTKTELIERLRAYQDQ [E14A] | -0.079 ± 0.065
47 | GALPAVLDDMKVAELKQELKLRSLPVSGTKTELIERLRAYQDQ [N6V] | -0.127 ± 0.1
48 | GALPAMLDDMKVAELKQELKLRSLPVSGTKTELIERLRAYQDQ [N6M] | 0.135 ± 0.072
49 | GALPARLDDMKVAELKQELKLRSLPVSGTKTELIERLRAYQDQ [N6R] | -0.048 ± 0.071
50 | GALPAQLDDMKVAELKQELKLRSLPVSGTKTELIERLRAYQDQ [N6Q] | -0.212 ± 0.092
51 | GALPALLDDMKVAELKQELKLRSLPVSGTKTELIERLRAYQDQ [N6L] | -0.124 ± 0.072
52 | GALPAPLDDMKVAELKQELKLRSLPVSGTKTELIERLRAYQDQ [N6P] | -1.5 ± 0.12
53 | GALPAWLDDMKVAELKQELKLRSLPVSGTKTELIERLRAYQDQ [N6W] | -0.76 ± 0.13
54 | GALPANLRDMKVAELKQELKLRSLPVSGTKTELIERLRAYQDQ [D8R] | 0.046 ± 0.06
55 | GALPANLADMKVAELKQELKLRSLPVSGTKTELIERLRAYQDQ [D8A] | 0.19 ± 0.065
56 | GALPANLCDMKVAELKQELKLRSLPVSGTKTELIERLRAYQDQ [D8C] | 0.176 ± 0.25
57 | GALPANLMDMKVAELKQELKLRSLPVSGTKTELIERLRAYQDQ [D8M] | -0.125 ± 0.085
58 | GALPANLEDMKVAELKQELKLRSLPVSGTKTELIERLRAYQDQ [D8E] | 0.261 ± 0.077
59 | GALPANLWDMKVAELKQELKLRSLPVSGTKTELIERLRAYQDQ [D8W] | 0.185 ± 0.071
